Patent publication US8911953B2, “TDF-related compounds and analogs thereof, analogs and bioactive fragments” (Thrasos Innovation, Inc., priority 2005, dated 2014)
Positions of bridges follow the written chain, without caps; N, C: chain ends. No end group written: not given here.

B1: BMP-7: recombinant human mature BMP-7 (BMP-7 or TDF-1), positive control therapy (protein)
chain: STGSKQRSQNRSKTPKNQEALRMANVAENSSSDQRQACKKHELYVSFRDLGWQDWIIAPEGYAAYYCEGECAFPLNSYMNATNHAIVQTLVHFINPETVPKPCCAPTQLNAISVLYFDDSSNVILKKYRNMVVRACGCH

Columns and labels:
[1] = tested on: vascular endothelial cells; test: Smad 1, 5 phosphorylation in vascular endothelial cells (Western blot); type: cell-based; conditions: added to vascular endothelial cells in culture
Experimental: Phosphorylation and nuclear translocation of Smads occurs following the activation of Type I and Type II receptors and subsequent signal transduction to intracellular Smad targets. Phosphorylation and nuclear translocation of R-Smad in HK-2, vascular endothelial, human prostate or other cells by TDFRP compounds is assayed by immuno-fluorescent microscopy methods, using anti-phospho Smad 1/5 antibodies according to the procedure of H Aoki, M Fujii, T Imamura, K Yagi, K Takehara, M Kato and K Miyazono. J. of Cell Sci. 114, 1483-1489, 2001) and by Western blot analysis (FIGS. 2, 3, 18, 2X).
The detection of Smad phosphorylation by Western analysis, for example in LNCaP (prostate cancer cells) or EC (vascular endothelial cells) in culture medium can be examined after exposure to varying concentrations of TDFRP or control compounds. BMP-7 serves as a positive control. Cells are lysed in RIPA lysis buffer (50 mM Tris-HCl at pH 8.0, 150 mM NaCl, 1% NP-40, 0.5% sodium deoxycholate, 0.1% SDS) containing 1 mM PMSF, 1 mM sodium orthovanadate, and 10 ug/mL proteinase inhibitor cocktail. Lysates are incubated on ice for 15 minutes, centrifuged, and transferred supernatant to a clean tube. 50 to 100 ug is used for analysis by SDS-PAGE. Resolved proteins are electro transferred onto PVDF membrane. The blot is blocked by incubating in 3% non-fat dry milk prepared in PBS at room temperature for 1 hour with constant slow agitation. The blot is incubated with 1-2 ug/mL of primary antibody (rabbit anti-phospho-Smad 1) prepared in PBS-milk, overnight with agitation at 4 degree C., washed twice with PBS, and incubated with secondary antibody (anti rabbit HRP conjugated IgG, 1:3000 dilution) at room temperature for 2 hours with agitation. After washing in PBS-0.05% Tween 20 for 5 minutes and rinsing, Smad phosphorylation is detected via an HRP reaction according to manufacturer's instructions (FIGS. 2, 3, 18, 2X).
Phosphorylation and nuclear translocation of Smads occurs following the activation of Type I and Type II receptors and subsequent signal transduction to intracellular Smad targets. Phosphorylation and nuclear translocation of R-Smad in HK-2 cells by TDFRP compounds is assayed by immuno-fluorescent microscopy methods, using anti-phospho Smad 1/5 antibodies according to the procedure of H Aoki, M Fujii, T Imamura, K Yagi, K Takehara, M Kato and K Miyazono. J. of Cell Sci. 114, 1483-1489, 2001) and by Western blot analysis in various cell types (FIGS. 2, 3, 18, 27).
For detection of Smad phosphorylation by Western analysis, LNCaP (prostate cancer cells) or EC (vascular endothelial cells) in culture medium are exposed to varying concentrations of TDFRP or control compounds. BMP-7 served as a positive control. Cells are lysed in RIPA lysis buffer (50 mM Tris-HCl at pH 8.0, 150 mM NaCl, 1% NP-40, 0.5% sodium deoxycholate, 0.1% SDS) containing 1 mM PMSF, 1 mM sodium orthovanadate, and 10 ug/mL proteinase inhibitor cocktail. Lysates are incubated on ice for 15 minutes, centrifuged, and transferred supernatant to a clean tube. 50 to 100 ug is used for analysis by
SDS-PAGE. Resolved proteins are electro transferred onto PVDF membrane. The blot is blocked by incubating in 3% non-fat dry milk prepared in PBS at room temperature for 1 hour with constant slow agitation. The blot is incubated with 1-2 ug/mL of primary antibody (rabbit anti-phospho-Smad 1) prepared in PBS-milk, overnight with agitation at 4 degree C., washed twice with PBS, and incubated with secondary antibody (anti rabbit HRP conjugated IgG, 1:3000 dilution) at room temperature for 2 hours with agitation. After washing in PBS-0.05% Tween 20 for 5 minutes and rinsing, Smad phosphorylation is detected via an HRP reaction according to manufacturer's instructions (FIGS. 3, 27).

NTN mice = conditions: cited from earlier work

Row | Molecule | phosphorylation and activation of intracellular Smad 1, 5 [1] | progression to chronic renal disease (NTN mice; about 300 micrograms/kg, starting after one week of NTN) | renal pathology (NTN mice; treatment from week 3 or week 4 through week 6)
1 | CYFDDSSNVLCKKYRS (disulfide 1-11 (inferred); not fully specified) [SEQ ID NO:45] | phosphorylation and activation of intracellular Smad 1, 5 | – | –
2 | B1 | – | prevent progression to chronic renal disease | almost completely reversed renal pathology
